Reference: patent US20190169301A1 (Boehringer Ingelheim, published 2019)
Changes are numbered by the printed parent chain.

Assays:
[1] = biological target: T1, human CD40 on cells (CD40-transfected HEK293 cells, Ramos cells, human B cells, human platelets) (human, UniProt P25942 21-277); assay: flow cytometry, human CD40-transfected HEK293 cells
T1 construct: whole, on cells; also called cellular CD40
Experimental: (§1) The specific binding of humanized antibodies to cellular CD40 was analyzed by flow cytometry using human CD40-transfected HEK293 cells. Concentration-dependent binding of Antibody A, Antibody B, and Antibody C was observed. […] No binding was detected on CD40 negative cells such as non-transfected HEK293 cells or the T cell line HSB-2 thus confirming selective binding to CD40 (data not shown).

[2] = biological target: T2, human CD40-Fc protein (human, UniProt P25942 21-193); assay: ForteBio Octet, human CD40-Fc, +/- human serum
T2 construct: also called recombinant CD40 protein; not shown: Fc part
T2 sequence (P25942 21-193 limits assumed): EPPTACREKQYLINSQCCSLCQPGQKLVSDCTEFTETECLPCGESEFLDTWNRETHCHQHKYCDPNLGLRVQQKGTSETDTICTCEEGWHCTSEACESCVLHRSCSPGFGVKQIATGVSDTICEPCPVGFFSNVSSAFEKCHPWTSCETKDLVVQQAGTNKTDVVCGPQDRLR
Experimental: Due to antibody and CD40-Fc bivalency avidity effects prevent Kds below 100 pM from being determined accurately. In addition, the binding to CD40-Fc was analyzed in the absence and presence of 50% human serum and no significant effect of serum on binding was observed (data not shown)

[3] = biological target: T1, human CD40 on cells (CD40-transfected …); assay: cell-based or functional assay
[4] = biological target: T1, human CD40 on cells (CD40-transfected …); assay: cell binding, flow cytometry (cell type not given)
[5] = biological target: T1, human CD40 on cells (CD40-transfected …); assay: cell-based or functional assay; remark: listed apart in the source
[6] = biological target: T3, cynomolgus monkey CD40 on cells (B cells, platelets) (cynomolgus monkey, UniProt G7PG38 21-278); assay: EC50 ratio human/cyno; ratio > 1 means increased binding to Cyno compared to Human
T3 construct: whole, on cells

[7] = biological target: T1, human CD40 on cells (CD40-transfected …); assay: flow cytometry (MFI) on CD40-transfected HEK cells
Experimental: as §1

[8] = biological target: T3, cynomolgus monkey CD40 on cells (B …); assay: flow cytometry, directly labeled antibody, platelets in cynomolgus whole blood (n = 5); range in brackets
[9] = biological target: T1, human CD40 on cells (CD40-transfected …); assay: flow cytometry (MFI) on human CD40-transfected HEK-293 cells
Experimental: as §1

[10] = biological target: T1, human CD40 on cells (CD40-transfected …); assay: flow cytometry, directly labeled antibody, B cells in human whole blood (n = 6); range in brackets
[11] = biological target: T3, cynomolgus monkey CD40 on cells (B …); assay: flow cytometry, directly labeled antibody, B cells in cynomolgus whole blood (n = 5); range in brackets
[12] = biological target: T1, human CD40 on cells (CD40-transfected …); assay: flow cytometry, directly labeled antibody, platelets in human whole blood (n = 5); range in brackets
[13] = biological target: T1, human CD40 on cells (CD40-transfected …); assay: flow cytometry (mean fluorescence intensity), FITC-labeled antibody on human platelets

T1 sequence (P25942 21-277): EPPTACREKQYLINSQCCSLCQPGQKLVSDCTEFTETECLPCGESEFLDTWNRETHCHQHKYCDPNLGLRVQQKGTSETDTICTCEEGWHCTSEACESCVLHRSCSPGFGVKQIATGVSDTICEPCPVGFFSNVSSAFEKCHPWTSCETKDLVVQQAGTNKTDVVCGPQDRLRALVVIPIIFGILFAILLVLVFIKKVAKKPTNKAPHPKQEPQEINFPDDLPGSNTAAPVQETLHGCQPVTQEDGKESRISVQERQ

B1: 4D11 (Kirin/Astellas) anti-CD40 antibody (antibody, V domains shown)
VH: QLQLQESGPGLLKPSETLSLTCTVSGGSISSPGYYGGWIRQPPGKGLEWIGSIYKSGSTYHNPSLKSRVTISVDTSKNQFSLKLSSVTAADTAVYYCTRPVVRYFGWFDPWGQGTLVTVSS
VL: AIQLTQSPSSLSASVGDRVTITCRASQGISSALAWYQQKPGKAPKLLIYDASNLESGVPSRFSGSGSGTDFTLTISSLQPEDFATYYCQQFNSYPTFGQGTKVEIK
EC50 [1]: ~1 nM
Kd [2]: < 0.1 nM
B cell proliferation assay, average IC50 [3]: ~0.02 nM
EC50 [4]: 0.9 nM
B cell proliferation:Agonism (SI*) [5]: < 2 SI (Stimulation Index)

B2: Antibody A (IgG1KO) (antibody, V domains shown)
VH: EVQLVESGGGLVKPGGSLRLSCAASGFTFSDYGMHWVRQAPGKGLEWVAYISSGNRIIYYADTVKGRFTISRDNAKNSLYLQMNSLRAEDTALYYCARQDGYRYAMDYWAQGTLVTVSS
VL: DIVMTQSPDSLAVSLGERATMSCKSSQSLLNSGNQKNYLTWHQQKPGQPPKLLIYWTSTRESGVPDRFSGSGSGTDFTLTISSLQAEDVAVYYCQNDYTYPLTFGGGTKVEIKR
notes: also called 20E2-12
EC50 [1]: ~1 nM
Kd [2]: < 0.1 nM
Species cross-react.:Hu/Cyno Binding (EC50 ratios) [6]: 3 ratio
EC50 (read off the curve) [7]: ~1 nM
EC50 [4]: 1.2 nM
B cell proliferation:Agonism (SI*) [5]: < 2 SI (Stimulation Index)

B3: Antibody B (IgG1KO) (antibody, V domains shown)
VH: B2 VH with L93V, A110G
VL: B2 VL with R18K, A19V, M21I, S22N
EC50 [1]: ~1 nM
EC50 [8]: 3.9 nM
EC50 [9]: 1 nM
EC50 [10]: 1.8 nM
Kd [2]: < 0.1 nM
Species cross-react.:Hu/Cyno Binding (EC50 ratios) [6]: 2 ratio
EC50 (read off the curve) [7]: ~2 nM
EC50 [11]: 2.1 nM
EC50 [4]: 1.5 nM
EC50 [12]: 4.6 nM
B cell proliferation:Agonism (SI*) [5]: < 2 SI (Stimulation Index)

B4: Antibody C (IgG1KO) (antibody, V domains shown)
VH: QVQLVQSGAEVKKPGASVKVSCTASGFNIKDYYVHWVKQAPGQGLEWMGRIDPEDGDSKYAPKFQGKATMTADTSTSTVYMELSSLRSEDTAVYYCTTSYYVGTYGYWGQGTLVTVSS
VL: DIQMTQSPSSLSASVGDRVTITCSASSSVSYMLWFQQKPGKAPKLLIYSTSNLASGVPSRFSGSGSGTDFTLTISSLQPEDFATYYCQQRTFYPYTFGGGTKVEIKR
notes: also called 2H11-159-94
EC50 [1]: ~1 nM
Kd [2]: < 0.1 nM
Species cross-react.:Hu/Cyno Binding (EC50 ratios) [6]: 1 ratio
EC50 (read off the curve) [7]: ~0.8 nM
EC50 [4]: 1.7 nM
B cell proliferation:Agonism (SI*) [5]: < 2 SI (Stimulation Index)

B5: 2H11 (murine anti-human CD40 antibody) (antibody, V domains shown)
VH: EVQLQQSGAELVRPGASVKLSCTASGFNIKDYYVHWVKQRPEKGLEWIGRIDPEDGDSKYAPKFQGKATMTADTSSNTAYLHLSSLTSEDTAVYYCTTSYYVGTYGYWGQGTTLTVSS
VL: QIVLTQSPAIMSASPGEKVTITCSASSSVSYMLWFQQKPGTSPKLWIYSTSNLASGVPARFGGSGSGTSYSLTISRMEAEDAATYYCQQRTFYPYTFGGGTKLEIK
notes: Mouse monoclonal antibody
binding result [13]: binds
